Biological target: CD22 (recombinant, histidine-tagged; Thermo Fisher A42609) (human, UniProt P20273 20-687)
Experiment: His-bead pull-down with qRT-PCR

Chain of CD22 (recombinant, histidine-tagged; Thermo Fisher A42609) (P20273 20-687, one chain of several): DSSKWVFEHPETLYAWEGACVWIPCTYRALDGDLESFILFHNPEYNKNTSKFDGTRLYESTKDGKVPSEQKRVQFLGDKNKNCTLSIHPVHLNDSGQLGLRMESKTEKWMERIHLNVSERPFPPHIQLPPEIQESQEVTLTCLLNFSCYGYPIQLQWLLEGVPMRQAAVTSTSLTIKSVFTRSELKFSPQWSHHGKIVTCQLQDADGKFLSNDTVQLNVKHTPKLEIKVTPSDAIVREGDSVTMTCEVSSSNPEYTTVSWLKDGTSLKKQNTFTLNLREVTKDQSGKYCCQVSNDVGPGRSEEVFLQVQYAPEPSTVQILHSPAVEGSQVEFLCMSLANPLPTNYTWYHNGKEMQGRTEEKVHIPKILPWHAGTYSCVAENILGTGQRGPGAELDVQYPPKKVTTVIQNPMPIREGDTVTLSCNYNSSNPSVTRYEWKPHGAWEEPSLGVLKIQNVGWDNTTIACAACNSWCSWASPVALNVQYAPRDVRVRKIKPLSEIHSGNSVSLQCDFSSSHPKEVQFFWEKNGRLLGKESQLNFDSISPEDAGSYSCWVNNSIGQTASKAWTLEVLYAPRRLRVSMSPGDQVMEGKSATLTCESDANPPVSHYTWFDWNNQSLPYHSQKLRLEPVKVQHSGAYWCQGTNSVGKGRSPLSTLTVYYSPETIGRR

B1: B-ALL1 (structured_RNA)
RNA: GGGAGGACGAUGCGGGCCAUUCGUCUUUUCGUCCCCAGACGACUCGCCCGA
modifications: 2'-fluoro pyrimidines (2'F-C, 2'F-U), unmodified purines
binding result: binds
